In patent US20110033521A1 (RAPPAPORT FAMILY INSTITUTE FOR RESEARCH IN THE MEDICAL …, published 2011):

Molecular target: T1, recombinant human MCP-1 (CCL2) (human, UniProt P13500 24-99)
T1 construct: Bought recombinant protein; also called RHMCP-1; monocyte chemoattractant protein-1
Assay: direct ELISA (O.D. 450 nm), chemokine coated at 100 ng/ml, CCR2(E3)-IgG at 5 ug/ml; reference: other human chemokines tested
Experimental: ELISA—The binding specificity of CCR2(E3)-IgG to various commercially available human chemokines (PeproTech, Rocky Hill, N.J.) was determined by direct ELISA as follows: 96-well ELISA plates (Nunc, Roskilde, Denemark) were coated with 100 ng/ml of each chemokine, washed and blocked with 1% BSA/PBS. CCR2(E3)-IgG at a concentration 5 μg/ml was then added. HRP labeled mouse anti human Ig (Jackson, Pa.) was added as a second Antibody. Results are shown as O.D. reading at 450 nm. Anti CCL2 monoclonal antibody (MAB679; R&D Systems, Minneapolis, […].) was used as a positive control (1 μg/ml).

T1 sequence (P13500 24-99 limits assumed): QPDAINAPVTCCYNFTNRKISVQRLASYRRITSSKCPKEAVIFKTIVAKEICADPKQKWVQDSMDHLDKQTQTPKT

B1: CCR2(E3)-IgG fusion protein (Fc fusion)
chain: GLSNCESTSQLDQATQVTET
notes: also called Ig-E3; CCR2-IgG; not shown: constant region (Hinge-CH2-CH3) of human IgG1 heavy chain, ligated downstream of CCR2 (E3)
With B1 the “fold binding against other factors tested” value was ~4 fold.
